Results: publication PMC9482650, “Quantitative fragmentomics allow affinity mapping of interactomes” (Nature Communications, 2022)
Residue numbers refer to the chain shown, from its start.

Columns and labels:
Experiment in all cases: holdup assay
Design in all cases: key: below the threshold = too weak to quantify, mostly under pKd 3.1 to 4
DLG1_1, Q12959 = molecular target: DLG1_1, Q12959
LIN7B, Q9HAP6 = molecular target: T1, LIN7B, Q9HAP6
T1 sequence (Q9HAP6 88-185, limits assumed, looked up): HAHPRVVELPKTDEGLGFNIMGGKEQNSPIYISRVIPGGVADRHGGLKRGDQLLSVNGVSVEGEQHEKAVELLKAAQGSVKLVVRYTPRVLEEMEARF

GRASP, Q7Z6J2 = molecular target: GRASP, Q7Z6J2
APBA1_2, Q02410 = molecular target: T2, APBA1_2, Q02410
T2 sequence (Q02410 742-832, limits assumed, looked up): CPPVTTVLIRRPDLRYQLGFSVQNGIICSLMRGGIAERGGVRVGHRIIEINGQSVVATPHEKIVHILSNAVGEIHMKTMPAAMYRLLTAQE

MPP2, Q14168 = molecular target: T3, MPP2, Q14168
T3 sequence (Q14168 180-250, limits assumed, looked up): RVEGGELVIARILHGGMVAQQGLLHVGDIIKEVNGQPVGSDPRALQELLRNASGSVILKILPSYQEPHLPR

SNTG2, Q9NY99 = molecular target: T4, SNTG2, Q9NY99
T4 sequence (Q9NY99 68-166, limits assumed, looked up): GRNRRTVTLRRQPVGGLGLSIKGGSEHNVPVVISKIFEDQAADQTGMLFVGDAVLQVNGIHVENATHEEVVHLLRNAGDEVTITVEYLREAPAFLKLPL

Inadl_10, Q8NI35 = molecular target: Inadl_10, Q8NI35
NHERF4_4, Q86UT5 = molecular target: NHERF4_4, Q86UT5
PTPN3, P26045 = molecular target: PTPN3, P26045
TX1BP3, O14907 = molecular target: T5, TX1BP3, O14907
T5 sequence (O14907 10-122, limits assumed, looked up): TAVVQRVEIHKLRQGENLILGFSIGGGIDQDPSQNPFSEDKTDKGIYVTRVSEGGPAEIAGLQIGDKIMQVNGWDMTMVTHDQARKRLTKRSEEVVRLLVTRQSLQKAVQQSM

GRIP1_7, Q9Y3R0 = molecular target: T6, GRIP1_7, Q9Y3R0
T6 sequence (Q9Y3R0 999-1096, limits assumed, looked up): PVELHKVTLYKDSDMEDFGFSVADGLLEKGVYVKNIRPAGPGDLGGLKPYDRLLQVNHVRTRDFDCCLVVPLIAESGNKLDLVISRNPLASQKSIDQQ

FRMPD1, Q5SYB0 = molecular target: T7, FRMPD1, Q5SYB0
T7 sequence (Q5SYB0 52-145, limits assumed, looked up): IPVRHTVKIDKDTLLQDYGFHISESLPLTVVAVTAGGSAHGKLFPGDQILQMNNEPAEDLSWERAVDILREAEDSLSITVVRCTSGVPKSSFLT

AHNAK1, Q09666 = molecular target: AHNAK1, Q09666
GRID2IP_1, A4D2P6 = molecular target: GRID2IP_1, A4D2P6
NHERF4_1, Q86UT5-2 = molecular target: NHERF4_1, Q86UT5-2
LIN7A, O14910 = molecular target: T8, LIN7A, O14910
T8 sequence (O14910 103-200, limits assumed, looked up): T1 sequence (Q9HAP6 88-185, limits assumed, looked up) with A2S, I20V, V35I, D42E, Q65H, Q77K, G78D, R89K

ARHGEF11, O15085 = molecular target: T9, ARHGEF11, O15085
T9 sequence (O15085 42-136, limits assumed, looked up): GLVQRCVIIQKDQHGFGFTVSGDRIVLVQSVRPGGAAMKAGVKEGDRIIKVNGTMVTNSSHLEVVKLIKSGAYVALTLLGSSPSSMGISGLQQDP

GORASP2, Q9H8Y8 = molecular target: GORASP2, Q9H8Y8
DLG4_2, P78352 = molecular target: DLG4_2, P78352
PCLO, Q9Y6V0 = molecular target: T10, PCLO, Q9Y6V0
T10 sequence (Q9Y6V0 4491-4600, limits assumed, looked up): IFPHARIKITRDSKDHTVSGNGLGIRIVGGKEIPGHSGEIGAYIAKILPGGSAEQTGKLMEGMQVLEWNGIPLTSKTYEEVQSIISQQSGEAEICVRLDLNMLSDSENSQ

FRMPD2_2, Q68DX3 = molecular target: FRMPD2_2, Q68DX3
DLG2_3, Q15700 = molecular target: DLG2_3, Q15700
MAGI2_3, Q86UL8 = molecular target: MAGI2_3, Q86UL8
FRMPD4, Q14CM0 = molecular target: FRMPD4, Q14CM0
GRIP1_3, Q9Y3R0 = molecular target: T11, GRIP1_3, Q9Y3R0
T11 sequence (Q9Y3R0 247-346, limits assumed, looked up): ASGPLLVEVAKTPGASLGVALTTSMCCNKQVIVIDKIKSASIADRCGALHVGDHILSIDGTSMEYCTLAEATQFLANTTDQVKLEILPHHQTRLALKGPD

Inadl_1, Q8NI35 = molecular target: Inadl_1, Q8NI35
GRIP2_5, Q9C0E4 = molecular target: GRIP2_5, Q9C0E4
[1] = plain residues with an end cap or a label only (N-terminal biotin on a linker: ahx)
[2] = plain residues with an end cap or a label only (N-terminal biotin on a linker: ttds)

Chain of NHERF4_4, Q86UT5 (Q86UT5 464-550): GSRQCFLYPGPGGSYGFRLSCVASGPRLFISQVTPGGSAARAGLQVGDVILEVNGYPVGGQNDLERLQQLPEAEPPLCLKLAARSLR
Chain of Inadl_1, Q8NI35 (Q8NI35 113-229): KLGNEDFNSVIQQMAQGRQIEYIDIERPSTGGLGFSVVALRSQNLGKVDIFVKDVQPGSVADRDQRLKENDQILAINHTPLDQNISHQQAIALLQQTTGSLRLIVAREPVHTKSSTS
Chain of GRIP2_5, Q9C0E4 (Q9C0E4 544-642): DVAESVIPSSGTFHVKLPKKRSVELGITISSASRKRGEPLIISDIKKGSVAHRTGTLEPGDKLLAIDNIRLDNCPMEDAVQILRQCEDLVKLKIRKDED
Chain of GRASP, Q7Z6J2 (Q7Z6J2 96-193): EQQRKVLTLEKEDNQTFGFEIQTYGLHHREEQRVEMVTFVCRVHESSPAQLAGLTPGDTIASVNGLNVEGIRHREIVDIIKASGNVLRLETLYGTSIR
Chain of FRMPD4, Q14CM0 (Q14CM0 67-160): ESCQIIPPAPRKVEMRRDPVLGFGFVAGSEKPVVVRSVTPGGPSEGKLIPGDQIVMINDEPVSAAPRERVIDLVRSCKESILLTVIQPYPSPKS
Chain of NHERF4_1, Q86UT5-2 (Q86UT5 other isoform, or with tags, fused parts or gaps): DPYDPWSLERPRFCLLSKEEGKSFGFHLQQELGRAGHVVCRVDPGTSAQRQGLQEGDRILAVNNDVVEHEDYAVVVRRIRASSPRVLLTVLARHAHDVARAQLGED
Chain of PTPN3, P26045 (P26045 505-587): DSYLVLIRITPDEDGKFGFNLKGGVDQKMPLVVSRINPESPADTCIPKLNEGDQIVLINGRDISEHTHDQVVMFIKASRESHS
Chain of MAGI2_3, Q86UL8 (Q86UL8 600-682): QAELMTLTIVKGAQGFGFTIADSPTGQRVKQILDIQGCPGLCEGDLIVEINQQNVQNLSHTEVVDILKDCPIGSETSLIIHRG
Chain of Inadl_10, Q8NI35 (Q8NI35 1673-1763): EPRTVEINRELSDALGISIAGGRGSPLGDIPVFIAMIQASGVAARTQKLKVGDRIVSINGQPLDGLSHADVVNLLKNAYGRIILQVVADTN
Chain of GRID2IP_1, A4D2P6 (A4D2P6 1-87): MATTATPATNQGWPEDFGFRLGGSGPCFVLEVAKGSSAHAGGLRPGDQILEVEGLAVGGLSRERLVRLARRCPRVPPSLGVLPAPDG
Chain of FRMPD2_2, Q68DX3 (Q68DX3 944-1038): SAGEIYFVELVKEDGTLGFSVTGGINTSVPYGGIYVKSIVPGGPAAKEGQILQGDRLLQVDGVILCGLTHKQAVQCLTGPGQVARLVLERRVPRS
Chain of DLG4_2, P78352 (P78352 155-259): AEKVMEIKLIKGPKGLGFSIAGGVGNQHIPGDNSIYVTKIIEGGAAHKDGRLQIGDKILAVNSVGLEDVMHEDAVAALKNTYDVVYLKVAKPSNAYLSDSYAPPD
Chain of AHNAK1, Q09666 (Q09666 4-100): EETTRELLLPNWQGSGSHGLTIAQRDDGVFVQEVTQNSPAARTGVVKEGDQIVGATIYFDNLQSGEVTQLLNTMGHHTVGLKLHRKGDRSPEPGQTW

With KEYDDELTFF [USH1C, Q9Y6N9] the pKd (DLG1_1, Q12959; [1]) was “below the threshold”, the pKd (LIN7B, Q9HAP6; [1]) was “below the threshold” and the pKd (GRASP, Q7Z6J2; [1]) was 4.41. The pKd (APBA1_2, Q02410; [1]) was “below the threshold”, the pKd (MPP2, Q14168; [1]) was “below the threshold” and the pKd (SNTG2, Q9NY99; [1]) was “below the threshold”. The pKd (Inadl_10, Q8NI35; [1]) was “below the threshold”, the pKd (NHERF4_4, Q86UT5; [1]) was “below the threshold” and the pKd (PTPN3, P26045; [1]) was 3.71. For the same binder, the pKd (TX1BP3, O14907; [1]) was “below the threshold”, the pKd (GRIP1_7, Q9Y3R0; [1]) was “below the threshold” and the pKd (FRMPD1, Q5SYB0; [1]) was “below the threshold”. For the same binder, the pKd (AHNAK1, Q09666; [1]) was “below the threshold”, the pKd (GRID2IP_1, A4D2P6; [1]) was “below the threshold” and the pKd (NHERF4_1, Q86UT5-2; [1]) was 3.6. For the same binder, the pKd (LIN7A, O14910; [1]) was “below the threshold”, the pKd (ARHGEF11, O15085; [1]) was “below the threshold” and the pKd (GORASP2, Q9H8Y8; [1]) was 3.57. For the same binder, the pKd (DLG4_2, P78352; [1]) was “below the threshold”, the pKd (PCLO, Q9Y6V0; [1]) was “below the threshold” and the pKd (FRMPD2_2, Q68DX3; [1]) was “below the threshold”. The pKd (DLG2_3, Q15700; [1]) was “below the threshold”, the pKd (MAGI2_3, Q86UL8; [1]) was “below the threshold” and the pKd (FRMPD4, Q14CM0; [1]) was 4.42. The pKd (GRIP1_3, Q9Y3R0; [1]) was “below the threshold”, the pKd (Inadl_1, Q8NI35; [1]) was “below the threshold” and the pKd (GRIP2_5, Q9C0E4; [1]) was “below the threshold”.

For PFRSRSPSEV [GPR6, P46095], the pKd (DLG1_1, Q12959; [2]) was “below the threshold”, the pKd (LIN7B, Q9HAP6; [2]) was “below the threshold” and the pKd (GRASP, Q7Z6J2; [2]) was “below the threshold”. For the same binder, the pKd (APBA1_2, Q02410; [2]) was 3.83, the pKd (MPP2, Q14168; [2]) was “below the threshold” and the pKd (SNTG2, Q9NY99; [2]) was “below the threshold”. For the same binder, the pKd (Inadl_10, Q8NI35; [2]) was “below the threshold”, the pKd (NHERF4_4, Q86UT5; [2]) was “below the threshold” and the pKd (PTPN3, P26045; [2]) was 3.95. For the same binder, the pKd (TX1BP3, O14907; [2]) was 3.61, the pKd (GRIP1_7, Q9Y3R0; [2]) was 3.63 and the pKd (FRMPD1, Q5SYB0; [2]) was “below the threshold”. The pKd (AHNAK1, Q09666; [2]) was “below the threshold”, the pKd (GRID2IP_1, A4D2P6; [2]) was “below the threshold” and the pKd (NHERF4_1, Q86UT5-2; [2]) was “below the threshold”. The pKd (LIN7A, O14910; [2]) was “below the threshold”, the pKd (ARHGEF11, O15085; [2]) was “below the threshold” and the pKd (GORASP2, Q9H8Y8; [2]) was 3.81. For the same binder, the pKd (DLG4_2, P78352; [2]) was 3.75, the pKd (PCLO, Q9Y6V0; [2]) was “below the threshold” and the pKd (FRMPD2_2, Q68DX3; [2]) was “below the threshold”. The pKd (DLG2_3, Q15700; [2]) was 3.68, the pKd (MAGI2_3, Q86UL8; [2]) was “below the threshold” and the pKd (FRMPD4, Q14CM0; [2]) was “below the threshold”. For the same binder, the pKd (GRIP1_3, Q9Y3R0; [2]) was “below the threshold”, the pKd (Inadl_1, Q8NI35; [2]) was “below the threshold” and the pKd (GRIP2_5, Q9C0E4; [2]) was “below the threshold”.

Work on KLVIKTETTV [RASSF6, Q6ZTQ3] yielded a pKd (DLG1_1, Q12959; [2]) of 4.88, a pKd (LIN7B, Q9HAP6; [2]) of 3.81 and a pKd (GRASP, Q7Z6J2; [2]) of 3.51. For the same binder, the pKd (APBA1_2, Q02410; [2]) was “below the threshold”, the pKd (MPP2, Q14168; [2]) was “below the threshold” and the pKd (SNTG2, Q9NY99; [2]) was 3.99. For the same binder, the pKd (Inadl_10, Q8NI35; [2]) was “below the threshold”, the pKd (NHERF4_4, Q86UT5; [2]) was “below the threshold” and the pKd (PTPN3, P26045; [2]) was 4.44. For the same binder, the pKd (TX1BP3, O14907; [2]) was 3.72, the pKd (GRIP1_7, Q9Y3R0; [2]) was 3.72 and the pKd (FRMPD1, Q5SYB0; [2]) was “below the threshold”. For the same binder, the pKd (AHNAK1, Q09666; [2]) was “below the threshold”, the pKd (GRID2IP_1, A4D2P6; [2]) was “below the threshold” and the pKd (NHERF4_1, Q86UT5-2; [2]) was “below the threshold”. The pKd (LIN7A, O14910; [2]) was 3.65, the pKd (ARHGEF11, O15085; [2]) was 3.91 and the pKd (GORASP2, Q9H8Y8; [2]) was 3.81. The pKd (DLG4_2, P78352; [2]) was 5.48, the pKd (PCLO, Q9Y6V0; [2]) was “below the threshold” and the pKd (FRMPD2_2, Q68DX3; [2]) was “below the threshold”. The pKd (DLG2_3, Q15700; [2]) was 4.49, the pKd (MAGI2_3, Q86UL8; [2]) was 3.73 and the pKd (FRMPD4, Q14CM0; [2]) was “below the threshold”. For the same binder, the pKd (GRIP1_3, Q9Y3R0; [2]) was “below the threshold”, the pKd (Inadl_1, Q8NI35; [2]) was “below the threshold” and the pKd (GRIP2_5, Q9C0E4; [2]) was “below the threshold”.

With SHSSKGETAV [FZD7, O75084] the pKd (DLG1_1, Q12959; [2]) was 4.72, the pKd (LIN7B, Q9HAP6; [2]) was “below the threshold” and the pKd (GRASP, Q7Z6J2; [2]) was 3.45. For the same binder, the pKd (APBA1_2, Q02410; [2]) was 3.8, the pKd (MPP2, Q14168; [2]) was “below the threshold” and the pKd (SNTG2, Q9NY99; [2]) was “below the threshold”. The pKd (Inadl_10, Q8NI35; [2]) was “below the threshold”, the pKd (NHERF4_4, Q86UT5; [2]) was “below the threshold” and the pKd (PTPN3, P26045; [2]) was 4.84. The pKd (TX1BP3, O14907; [2]) was 3.89, the pKd (GRIP1_7, Q9Y3R0; [2]) was “below the threshold” and the pKd (FRMPD1, Q5SYB0; [2]) was 3.6. The pKd (AHNAK1, Q09666; [2]) was “below the threshold”, the pKd (GRID2IP_1, A4D2P6; [2]) was “below the threshold” and the pKd (NHERF4_1, Q86UT5-2; [2]) was “below the threshold”. The pKd (LIN7A, O14910; [2]) was “below the threshold”, the pKd (ARHGEF11, O15085; [2]) was 4.3 and the pKd (GORASP2, Q9H8Y8; [2]) was 3.66. For the same binder, the pKd (DLG4_2, P78352; [2]) was 4.69, the pKd (PCLO, Q9Y6V0; [2]) was “below the threshold” and the pKd (FRMPD2_2, Q68DX3; [2]) was 3.81. For the same binder, the pKd (DLG2_3, Q15700; [2]) was 4.32, the pKd (MAGI2_3, Q86UL8; [2]) was 3.49 and the pKd (FRMPD4, Q14CM0; [2]) was 3.52. The pKd (GRIP1_3, Q9Y3R0; [2]) was “below the threshold”, the pKd (Inadl_1, Q8NI35; [2]) was “below the threshold” and the pKd (GRIP2_5, Q9C0E4; [2]) was “below the threshold”.
